{"source": "patent US20080187984A1", "about": "“Myo-inositol oxygenases” (Cargill, Incorporated, priority 2001, published 2008)", "biological_target": "T1, gulono-γ-lactone oxidase (Rattus norvegicus, UniProt P10867, I85V)", "T1 construct": "His tag (pET30a fusion); made in house; host or cells: E. coli Rosetta(DE3), pET30a", "T1 sequence (P10867 1-440 I85V)": "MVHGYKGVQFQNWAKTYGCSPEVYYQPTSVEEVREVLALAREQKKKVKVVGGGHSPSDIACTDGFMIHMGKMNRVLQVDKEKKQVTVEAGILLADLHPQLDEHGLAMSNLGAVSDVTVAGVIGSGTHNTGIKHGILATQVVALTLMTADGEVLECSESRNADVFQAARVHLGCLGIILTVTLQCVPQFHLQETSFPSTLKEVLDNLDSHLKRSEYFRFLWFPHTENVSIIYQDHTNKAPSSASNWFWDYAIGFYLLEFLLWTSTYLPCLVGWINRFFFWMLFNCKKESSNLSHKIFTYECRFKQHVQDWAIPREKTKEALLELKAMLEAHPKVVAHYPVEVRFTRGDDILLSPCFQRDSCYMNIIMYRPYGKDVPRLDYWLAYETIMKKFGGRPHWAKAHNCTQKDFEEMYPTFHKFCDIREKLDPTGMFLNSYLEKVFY", "test": "GLO assay, ascorbic acid from L-gulono-γ-lactone", "assay_type": "biochemical", "conditions": "His-Bind purified from E. coli; 2.5 mM L-gulono-γ-lactone", "method": "GLO activity was assayed according to the procedure described by Nishikimi (Methods in Enzymology, 62:24-30 (1979)). The assay mixture contained, in 1 mL, 50 mM potassium phosphate buffer, pH 7.5, 2.5 mM L-gulono-γ-lactone, 1 mM EDTA, and enzyme. The reaction was initiated by the addition of either substrate or enzyme, and the mixture was incubated with shaking in air for 15 minutes at 37° C. The reaction was stopped by the addition of 0.1 mL 50% trichloroacetic acid, and the precipitated protein was removed by centrifugation. The product ascorbic acid was detected by the method described in Example 9. Briefly, 0.956 mL 2,2′-dipyridyl reagent was added to 0.15 mL of the supernatant solution, and the reaction mixture was incubated at 25° C. for 15 minutes. After 15 minutes, the sample was centrifuged to remove any precipitate, and the absorbance was read at 525 nm. The 2,2′-dipyridyl reagent contained 0.056 mL ortho-phosphoric acid (85%), 0.75 mL 0.5% 2,2′-dipyridyl (prepared in hot H2O), and 0.15 mL 1% FeCl3 (in H2O). Standards of ascorbic acid (1.0 μg to 10 μg) were run in parallel with the biological samples for a standard curve. One unit is defined as the quantity that catalyzes the formation of 1 nmol of L-ascorbic acid in 1 minute under the conditions described above. Specific activity is expressed as units per mg of protein ([…]/min/mg)."}
{"molecule": "GLO: gulono-γ-lactone oxidase, rat glo expressed from pET30a in E. coli Rosetta(DE3), His-Bind purified (protein, UniProt P10867 2-440, looked up, His tag) L-gulonolactone oxidase: VHGYKGVQFQNWAKTYGCSPEVYYQPTSVEEVREVLALAREQKKKVKVVGGGHSPSDIACTDGFMIHMGKMNRVLQVDKEKKQITVEAGILLADLHPQLDEHGLAMSNLGAVSDVTVAGVIGSGTHNTGIKHGILATQVVALTLMTADGEVLECSESRNADVFQAARVHLGCLGIILTVTLQCVPQFHLQETSFPSTLKEVLDNLDSHLKRSEYFRFLWFPHTENVSIIYQDHTNKAPSSASNWFWDYAIGFYLLEFLLWTSTYLPCLVGWINRFFFWMLFNCKKESSNLSHKIFTYECRFKQHVQDWAIPREKTKEALLELKAMLEAHPKVVAHYPVEVRFTRGDDILLSPCFQRDSCYMNIIMYRPYGKDVPRLDYWLAYETIMKKFGGRPHWAKAHNCTQKDFEEMYPTFHKFCDIREKLDPTGMFLNSYLEKVFY", "values": [{"measurement": "Specific Activity (purified protein)", "result": 0.926, "unit": "nmol/min/mg"}]}
